Test results: paper PMC10083269, “Basic characterization of antibodies targeting receptors of the tumor necrosis factor receptor superfamily” (Frontiers in Immunology, 2023)
One block for each binder: values may come before it.

How the values were obtained:
[1] = target: T1, CD40 on HT1080-CD40 cells (Homo sapiens, UniProt P25942); test: cellular competition binding with a GpL-TNFL fusion protein; HT1080 transfectants (2 x 10^4 per well) incubated with an excess of the GpL-free antibody (10 µg/ml) or VHH Fc fusion protein for 30 minutes, then GpL-TNFL added at a concentration close to its KD (typically 1 - 100 ng/ml); remaining specific binding against TNFR negative HT1080 cells; conditions: partners not purified
T1 construct: CD40 expressed on HT1080-CD40 transfectants; also called CD40-expressing cells
T1 sequence (P25942 21-277): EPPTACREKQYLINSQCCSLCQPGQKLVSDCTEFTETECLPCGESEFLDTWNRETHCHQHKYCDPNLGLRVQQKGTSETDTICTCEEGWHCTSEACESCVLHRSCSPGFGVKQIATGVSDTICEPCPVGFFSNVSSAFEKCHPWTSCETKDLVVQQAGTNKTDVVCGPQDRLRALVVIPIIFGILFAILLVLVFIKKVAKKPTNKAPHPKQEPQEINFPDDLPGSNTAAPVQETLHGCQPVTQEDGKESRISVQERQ

TNFR2(ed)-CRD1-2-GpL = target: T2, TNFR2(ed)-CRD1-2-GpL (Homo sapiens, point mutant); test: cell-free binding of GpL-tagged receptor fragments to plate-captured antibody; plates coated with 1 µg/ml protein G, antibody (1 µg/ml) captured 1 h at 37°C, 500 ng/ml TNFR2-GpL fusion proteins added in medium for 2 h at 37°C, well-associated luminescence; irrelevant IgG1 wells subtracted; conditions: partners not purified
T2 construct: TNFR2, CRD1-CRD2 of the ectodomain; also called GpL-tagged deletion mutant of the TNFR2 ectodomain lacking the stalk region + CRDs 3 and 4; source: HEK293T, transient transfection (PEI); not shown: GpL (Gaussia princeps luciferase), C-terminal, kept
T2 chain: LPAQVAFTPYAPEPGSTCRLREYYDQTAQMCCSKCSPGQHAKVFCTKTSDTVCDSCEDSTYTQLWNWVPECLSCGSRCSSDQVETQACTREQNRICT

TNFR2(ed)-CRD1-4-GpL = target: T3, TNFR2(ed)-CRD1-4-GpL (Homo sapiens, point mutant); test: as above; conditions: partners not purified
T3 construct: TNFR2, CRD1-CRD4 of the ectodomain (stalk region lacking); also called GpL-tagged deletion mutant of the TNFR2 ectodomain lacking the stalk region; source: HEK293T, transient transfection (PEI); not shown: GpL (Gaussia princeps luciferase), C-terminal, kept
T3 chain: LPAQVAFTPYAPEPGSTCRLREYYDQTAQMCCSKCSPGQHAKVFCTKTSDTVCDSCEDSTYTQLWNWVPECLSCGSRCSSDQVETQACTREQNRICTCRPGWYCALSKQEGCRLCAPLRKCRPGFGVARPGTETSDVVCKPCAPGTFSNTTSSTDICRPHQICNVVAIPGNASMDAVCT

TNFR2(ed)-CRD1-3-GpL = target: T4, TNFR2(ed)-CRD1-3-GpL (Homo sapiens, point mutant); test: as above; conditions: partners not purified
T4 construct: TNFR2, CRD1-CRD3 of the ectodomain; also called GpL-tagged deletion mutant of the TNFR2 ectodomain lacking the stalk region + CRD4; source: HEK293T, transient transfection (PEI); not shown: GpL (Gaussia princeps luciferase), C-terminal, kept
T4 chain: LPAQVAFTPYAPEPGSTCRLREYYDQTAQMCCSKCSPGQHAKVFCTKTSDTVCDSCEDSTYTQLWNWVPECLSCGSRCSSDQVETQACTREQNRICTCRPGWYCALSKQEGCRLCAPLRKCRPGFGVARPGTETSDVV

TNFR2(ed)-CRD1-GpL = target: T5, TNFR2(ed)-CRD1-GpL (Homo sapiens, point mutant); test: as above; conditions: partners not purified
T5 construct: TNFR2, CRD1 of the ectodomain; also called GpL fusion protein of the TNFR2 CRD1 alone; source: HEK293T, transient transfection (PEI); not shown: GpL (Gaussia princeps luciferase), C-terminal, kept
T5 chain: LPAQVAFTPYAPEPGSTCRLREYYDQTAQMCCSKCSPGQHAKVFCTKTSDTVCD

[2] = target: T1, CD40 on HT1080-CD40 cells; test: cellular equilibrium binding of a GpL (luciferase) fusion protein; adherent HT1080-CD40 cells in 96-well plates (2 x 10^4 cells/well), two-fold dilution series of the GpL antibody fusion protein, 37°C, 30 min to 1 h, five washes with icecold PBS, cell-associated luminescence; non-specific binding from HT1080 cells, from cells blocked with an excess of the GpL-free antibody, or from an irrelevant IgG1-LC:GpL; one …; conditions: partners not purified
CD40(ed)-Fc = target: T6, CD40(ed)-Fc (Homo sapiens, UniProt P25942); test: cell-free equilibrium binding of a GpL (luciferase) fusion protein on coated plates; black high binding 96-well plates coated with 1 µg/ml CD40(ed)-Fc in 0,1 M carbonate buffer at 4°C overnight, blocked with 10% FCS in PBS, two-fold dilution series of the GpL antibody fusion protein, 37°C, 1 h; non-specific binding from irrTNFR(ed)-Fc wells, from wells blocked with an excess of the GpL-free antibody, or from an …; conditions: one partner purified
T6 construct: extracellular domain of CD40; coated directly on the plate; the legend's footnote says that purified TNFR(ed)-Fc can be coated directly, so it was probably purified; also called Fc fusion protein of the extracellular CD40 domain; source: HEK293T, transient transfection (said of the recombinant proteins in general)
T6 sequence (P25942 21-193): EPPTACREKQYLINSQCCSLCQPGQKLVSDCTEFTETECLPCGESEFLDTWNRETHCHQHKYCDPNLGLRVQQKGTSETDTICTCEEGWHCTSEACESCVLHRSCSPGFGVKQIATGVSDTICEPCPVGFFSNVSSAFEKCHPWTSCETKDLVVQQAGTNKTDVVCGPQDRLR

binding result [1]: binds
B1: Anti-CD40(ADC)-IgG1 (antibody, V domains shown)
VH: EVQLLESGGGLVQPGGSLRLSCAASGFTFSTYGMHWVRQAPGKGLEWLSYISGGSSYIFYADSVRGRFTISRDNSENALYLQMNSLRAEDTAVYYCARILRGGSGMDLWGQGTLVTVSS
VL: QSVLTQPPSASGTPGQRVTISCTGSSSNIGAGYNVYWYQQLPGTAPKLLIYGNINRPSGVPDRFSGSKSGTSASLAISGLRSEDEADYYCAAWDKSISGLVFGGGTKLTVL
notes: heavy chain of recombinant anti-CD40 IgG1 clone ADC1013; light chain of recombinant anti-CD40 IgG1 clone ADC1013; IgG1; also called ADC1013; variant of the anti-CD40 antibody ADC-1013; source: HEK293T, transient transfection (PEI)

binding result (TNFR2(ed)-CRD1-2-GpL): binds
binding result (TNFR2(ed)-CRD1-4-GpL): binds
binding result (TNFR2(ed)-CRD1-3-GpL): binds
binding result (TNFR2(ed)-CRD1-GpL): no binding (tested: 500 ng/ml)
B2: anti-TNFR2(68/69)-IgG1(N297A) (antibody, V domains shown)
VH: QVTLKESGPALVKPTQTLTLTCTFSGFSLSTSGMGVGWIRQPPGKALEWLAHIWWDDDKFYNPSLKSRLTISKDTSKNQVVLTMTNMDPVDTATYYCARLTGTRYFDYWGQGTTVTVSS
VL: DVQMTQSPSSLSASVGDRVTITCKASQDINKFIAWYQQKPGKAPKLLIHYTSTLQPGIPSRFSGSGSGRDYTFTISSLQPEDIATYYCLQYGNLWTFGGGTKVEIK
notes: heavy chain of recombinant anti-TNFR2 IgG1(N297A) clone SBT-002 (68/69); light chain of recombinant anti-TNFR2 clone SBT-002 (68/69); IgG1 with N297A in the Fc; also called SBT-002; anti-TNFR2 antibody 68/69; source: HEK293T, transient transfection (PEI)

binding result [2]: binds
binding result (CD40(ed)-Fc): binds
B3: anti-CD40(G28.5)-IgG1-LC : GpL (antibody, V domains shown)
VH: DIQLQQSGPGLVKPSQSLSLTCSVTGYSITTNYNWNWIRQFPGNKLEWMGYIRYDGTSEYTPSLKNRVSITRDTSMNQFFLRLTSVTPEDTATYYCARLDYWGQGTLVTVSS
VL: DIVMTQNPLSLPVSLGDEASISCRSSQSLENSNGNTFLNWFFQKPGQSPQLLIYRVSNRFSGVPDRFSGSGSGTDFTLKISRVEAEDLGVYFCLQVTHVPYTFGGGTTLEIK
notes: heavy chain of recombinant anti-CD40 IgG1 clone G28.5; light chain of recombinant anti-CD40 IgG1 clone G28.5; IgG1; GpL domain on the C-terminus of the light chain; also called GpL-Ab-Fp of the CD40-specific antibody G28.5; source: HEK293T, transient transfection (PEI), cell culture supernatant; not shown: GpL (Gaussia princeps luciferase), C-terminal, kept

binding result [2]: binds
binding result (CD40(ed)-Fc): binds
B4: anti-CD40(G28.5)-IgG1 (antibody, V domains shown)
VH: B3 VH
VL: B3 VL
notes: as the heavy chain of m1; as the light chain of m1, without the GpL domain; IgG1; also called GpL-free version of G28.5; source: HEK293T, transient transfection (PEI)
